Assay results from US20150344580A1 (published 2015).

T1: human chemokine receptor CCR7 (UniProt P32248 25-378)
T1 chain: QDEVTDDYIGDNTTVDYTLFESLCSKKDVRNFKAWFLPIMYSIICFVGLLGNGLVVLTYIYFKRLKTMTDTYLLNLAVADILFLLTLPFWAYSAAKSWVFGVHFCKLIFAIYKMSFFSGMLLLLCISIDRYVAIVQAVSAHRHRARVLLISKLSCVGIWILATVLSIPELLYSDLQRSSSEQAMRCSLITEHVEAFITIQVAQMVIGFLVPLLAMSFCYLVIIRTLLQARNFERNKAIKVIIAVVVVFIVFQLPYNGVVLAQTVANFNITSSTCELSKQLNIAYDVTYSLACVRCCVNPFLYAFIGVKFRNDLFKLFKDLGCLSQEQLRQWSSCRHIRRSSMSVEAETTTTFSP


Columns and labels:
[1] = biological target: T1, human chemokine receptor CCR7; experiment: FACS cell binding; after pH stress (3hr)
[2] = biological target: T1, human chemokine receptor CCR7; experiment: FACS cell binding; after pH stress (2hr)
[3] = biological target: T1, human chemokine receptor CCR7; experiment: FACS cell binding; after temperature stress
[4] = biological target: T1, human chemokine receptor CCR7; experiment: FACS cell binding; after pH stress (2hr)
[5] = biological target: T1, human chemokine receptor CCR7; experiment: FACS cell binding; after pH stress (3hr)

Row | EC50 [1] | EC50 [2] | EC50 [3] | EC50 [4] | EC50 [5] | Binder
1 | ~9.1 nM | ~9.4 nM | ~6 nM | – | – | MSM R707 in IgG4 format (antibody, V domains shown) VH: EVQLLESGGGLVQPGGSLRLSCAASGFTFSNYAIHWVRQAPGKGLEWVSAITPRGGYTYYADSVKGRFTISRDNSKNTLYLQMNSLRAEDTAVYYCARGLTMMYTPGMDYWGQGTLVTVSS VL: not shown
2 | – | – | – | ~4.6 nM | ~7.6 nM | MSM R735 in IgG4 format (antibody, V domains shown) VH: EVQLLESGGGLVQPGGSLRLSCAASGFTFSNYNMHWVRQAPGKGLEWVSGIGPRRGRTYYADSVKGRFTISRDNSKNTLYLQMNSLRAEDTAVYYCARSYAYQYRGLDYWGQGTLVTVSS VL: EIVLTQSPGTLSLSPGERATLSCRASQSVSSSYLAWYQQKPGQAPRLLIYGASSRATGIPDRFSGSGSGTDFTLTISRLEPEDFAVYYCQQGSPVTFGQGTKVEIKR
